Assay [1] addresses huTIM-3/his (human) (UniProt Q8TDQ0). The assay can be described thus: SPR (Biacore) competition; 2nd antibody injection after 1st antibody ABTIM3-hum03 (competitor). Background: Surface plasmon resonance follows binding to a sensor surface in real time, without labels.
The target is the same in assay [2]. The assay can be described thus: SPR (Biacore) competition; 2nd antibody injection after 1st antibody huIgG1 (competitor).
Assay [3] has the same target. In words: SPR (Biacore) competition, hTIM-3/his captured by anti-His antibody; 1st antibody injection.
For assay [4] the target is unchanged. In words: SPR (Biacore) competition; 2nd antibody injection after 1st antibody ABTIM3-hum21 (competitor).
For assay [5] the target is unchanged. The assay can be described thus: SPR (Biacore) competition; 2nd antibody injection after 1st antibody ABTIM3-hum11 (competitor).

Among the data in patent US20200308277A1 are change in RU values, retold here.

Chain of huTIM-3/his (human) (Q8TDQ0 22-202 limits assumed): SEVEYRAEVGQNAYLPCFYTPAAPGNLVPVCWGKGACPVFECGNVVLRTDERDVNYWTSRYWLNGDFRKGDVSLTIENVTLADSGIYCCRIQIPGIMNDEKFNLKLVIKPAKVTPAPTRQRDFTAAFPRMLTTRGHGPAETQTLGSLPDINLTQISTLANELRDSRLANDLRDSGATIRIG

As to huIgG1 (antibody), the change in RU came to 4.5 RU in assay [1]; 3.6 RU in assay [2]; 0.27 RU in assay [3]; 4.5 RU in assay [4]; 3.8 RU in assay [5].
